In the RNAGym collection of RNA variant scans (doi:10.1073/pnas.2313332121):
Fewer inactive variants are shown than the library holds.

B1: TPR 5TU (parent)
chain: GGAUCUUCUCGAUCUAACAAAAAAGACAAAUCUGCCACAAAGCUUGAGAGCAUCUUCGGAUGCAGAGGCGGCAGCCUUCGGUGGCGCGAUAGCGCCAACGUUCUCAACUAUGACACGCAAAACGCGUGCUCCGUUGAAUGGAGUUUAUCAUG

Variants of: B1
Assay: polymerase ribozyme fitness, log enrichment relative to wild type (log ratio); higher = more active; in vitro selection for triplet polymerase activity
Method in brief: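 The heterodimeric triplet polymerase ribozyme's subunits were each mutagenized into PCR-built libraries and transcribed. Every library was selected once, in triplicate, by annealing with a biotinylated primer, the partner subunit and triplets, incubating frozen at −7 °C, gel-excising extended constructs, capturing on streptavidin beads and running RT-PCR. Input and output libraries were Illumina-sequenced, with genotypes kept only at ≥10 input reads and ≥1 read per output. Fitness, from inverse-variance-weighted replicate averages, is the base-2 logarithm of genotype enrichment over wild-type enrichment.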

Which “polymerase ribozyme fitness (log ratio)” value does the source give for A24C G67A G81C G88A here?
Its value is at most -4.2.

Which “polymerase ribozyme fitness (log ratio)” value does the source give for A23U A30G G42U A52U U56A C72G C95G C114G U139A here?
Its value is at most -4.2.

With A23U U55A G88A C114A G136C as the variant, how does the “polymerase ribozyme fitness (log ratio)” value read?
The value was at most -4.2.

With A24U U45C U101G A106G as the variant, how does the “polymerase ribozyme fitness (log ratio)” value read?
Its value is 0.694.

Which “polymerase ribozyme fitness (log ratio)” value does the source give for A24G G42U C72A A91U G92A U102G G136U here?
The value was at most -4.2.

With A24G G34A G58C C87A C99U as the variant, how does the “polymerase ribozyme fitness (log ratio)” value read?
Its value is at most -4.2.

For A24G A73G G86A G141U U145A A150U, which “polymerase ribozyme fitness (log ratio)” value is on record?
The value was at most -4.2.

Which “polymerase ribozyme fitness (log ratio)” value does the source give for A24G U145A here?
The value was -3.78.

Which “polymerase ribozyme fitness (log ratio)” value does the source give for A24C C32G C43G C87G U104G A115C here?
The value was at most -4.2.

With A23U C96U as the variant, how does the “polymerase ribozyme fitness (log ratio)” value read?
The value was -4.1.

For A24C A73U C79U G88U G126A, which “polymerase ribozyme fitness (log ratio)” value is on record?
Its value is at most -4.2.

With A23G G59U C95U as the variant, how does the “polymerase ribozyme fitness (log ratio)” value read?
Its value is -3.41.

With A24U C51U G59C G83A G84U C131U as the variant, how does the “polymerase ribozyme fitness (log ratio)” value read?
Its value is -3.74.

Which “polymerase ribozyme fitness (log ratio)” value does the source give for A23U G46U C87U G88U A119G A120C G133U here?
Its value is at most -4.2.

With A23U C51U C93U G100U C123G as the variant, how does the “polymerase ribozyme fitness (log ratio)” value read?
The value was at most -4.2.

Which “polymerase ribozyme fitness (log ratio)” value does the source give for A24U A28U C79G A91U A97U C116U C132U U135A here?
Its value is at most -4.2.

With A23U C35G A73U G81A U109G as the variant, how does the “polymerase ribozyme fitness (log ratio)” value read?
The value was at most -4.2.

With A24G C54A as the variant, how does the “polymerase ribozyme fitness (log ratio)” value read?
Its value is -3.54.

For A24C A30U A52G G58A G68A U82G C93U A98U G100C C125A G126U, which “polymerase ribozyme fitness (log ratio)” value is on record?
The value was at most -4.2.

Which “polymerase ribozyme fitness (log ratio)” value does the source give for A24G C35A G58A C93G C99A here?
Its value is at most -4.2.

Which “polymerase ribozyme fitness (log ratio)” value does the source give for A24C C27G A29U C57U G86C C103A here?
The value was at most -4.2.

For A23U G94A, which “polymerase ribozyme fitness (log ratio)” value is on record?
Its value is -3.99.

With A23U A26U C27U A41U C93U C95A as the variant, how does the “polymerase ribozyme fitness (log ratio)” value read?
The value was at most -4.2.

For A23U C43U U61G G84U A89C C108G U145A, which “polymerase ribozyme fitness (log ratio)” value is on record?
The value was at most -4.2.

With A23U G74U U82G as the variant, how does the “polymerase ribozyme fitness (log ratio)” value read?
Its value is at most -4.2.

With A24U G80U C123G U146G as the variant, how does the “polymerase ribozyme fitness (log ratio)” value read?
The value was -1.39.

With A24C G65A G84C A97G G100U C108G G141C as the variant, how does the “polymerase ribozyme fitness (log ratio)” value read?
Its value is at most -4.2.

Which “polymerase ribozyme fitness (log ratio)” value does the source give for A24C C51U C105G here?
The value was at most -4.2.

With A23G G81A A121U G141U as the variant, how does the “polymerase ribozyme fitness (log ratio)” value read?
The value was -2.76.

Which “polymerase ribozyme fitness (log ratio)” value does the source give for A24U G50A C108G C125A G141C here?
The value was at most -4.2.

For A24U A60U G83A, which “polymerase ribozyme fitness (log ratio)” value is on record?
Its value is -1.22.

With A24U G86U as the variant, how does the “polymerase ribozyme fitness (log ratio)” value read?
The value was -2.59.

With A24U G86A as the variant, how does the “polymerase ribozyme fitness (log ratio)” value read?
Its value is -1.43.

With A24U A30U G59A U101C U102G A121U G126C A142C as the variant, how does the “polymerase ribozyme fitness (log ratio)” value read?
The value was at most -4.2.

With A24U A60G C85U A97C C129U as the variant, how does the “polymerase ribozyme fitness (log ratio)” value read?
The value was -0.602.

With A24G C57U as the variant, how does the “polymerase ribozyme fitness (log ratio)” value read?
Its value is -3.7.

With A24U C27G G50C C54G A64C G84A G86C C118G C149U as the variant, how does the “polymerase ribozyme fitness (log ratio)” value read?
Its value is at most -4.2.

With A24C A73C G86U C96A as the variant, how does the “polymerase ribozyme fitness (log ratio)” value read?
Its value is at most -4.2.

For A24U C35A A52U G84A G136A, which “polymerase ribozyme fitness (log ratio)” value is on record?
The value was at most -4.2.

With A24C A37C C38U G59A C95A A107C C116U as the variant, how does the “polymerase ribozyme fitness (log ratio)” value read?
Its value is at most -4.2.

For A23U C85U U102A A107U U130G U135G A138C, which “polymerase ribozyme fitness (log ratio)” value is on record?
Its value is at most -4.2.

With A24U G94A G143U as the variant, how does the “polymerase ribozyme fitness (log ratio)” value read?
The value was -3.4.

With A23U G68C C76G G80C A89U U148G as the variant, how does the “polymerase ribozyme fitness (log ratio)” value read?
Its value is at most -4.2.

For A24C C118U C125U, which “polymerase ribozyme fitness (log ratio)” value is on record?
The value was at most -4.2.

Which “polymerase ribozyme fitness (log ratio)” value does the source give for A24G C85A here?
The value was -2.96.

Which “polymerase ribozyme fitness (log ratio)” value does the source give for A24G C85G here?
Its value is at most -4.2.

With A24U G68C G81C G94A A98C U104C as the variant, how does the “polymerase ribozyme fitness (log ratio)” value read?
The value was at most -4.2.

Which “polymerase ribozyme fitness (log ratio)” value does the source give for A24C A28U A37U U134C here?
The value was at most -4.2.

Which “polymerase ribozyme fitness (log ratio)” value does the source give for A24U G80C here?
Its value is -4.14.

For A24U G80U, which “polymerase ribozyme fitness (log ratio)” value is on record?
The value was -0.195.

Which “polymerase ribozyme fitness (log ratio)” value does the source give for A24G C32A U33G G65A G80A A98U G126C U145G A147C here?
Its value is at most -4.2.

With A24U A52U C118G A142U as the variant, how does the “polymerase ribozyme fitness (log ratio)” value read?
Its value is -3.54.

Which “polymerase ribozyme fitness (log ratio)” value does the source give for A24U C51G U55A G59C here?
The value was -2.27.

With A24U G58A C79G A91U C118A G141C as the variant, how does the “polymerase ribozyme fitness (log ratio)” value read?
Its value is at most -4.2.

Which “polymerase ribozyme fitness (log ratio)” value does the source give for A24C G74C U90G C99G U127A here?
Its value is at most -4.2.

For A24C G84A, which “polymerase ribozyme fitness (log ratio)” value is on record?
The value was at most -4.2.

With A23U U44A U45A A66U C95U A120G as the variant, how does the “polymerase ribozyme fitness (log ratio)” value read?
The value was at most -4.2.

For A23U C27G A40G A47U G67A G83U G84A, which “polymerase ribozyme fitness (log ratio)” value is on record?
Its value is at most -4.2.

With A23U C38U as the variant, how does the “polymerase ribozyme fitness (log ratio)” value read?
Its value is -4.06.

Which “polymerase ribozyme fitness (log ratio)” value does the source give for A24U A28G C36U G62A U78G G83A A91G G128C here?
The value was -3.66.

With A24U A41G U53G G124C C131U as the variant, how does the “polymerase ribozyme fitness (log ratio)” value read?
Its value is -1.4.

With A24G C116G as the variant, how does the “polymerase ribozyme fitness (log ratio)” value read?
Its value is -2.85.

With A23U C93U G126U as the variant, how does the “polymerase ribozyme fitness (log ratio)” value read?
The value was at most -4.2.

Which “polymerase ribozyme fitness (log ratio)” value does the source give for A24C A37G G48C C63U U78G G88C U144G here?
The value was at most -4.2.

Which “polymerase ribozyme fitness (log ratio)” value does the source give for A24G U33G C87U U101G G140C here?
Its value is at most -4.2.

With A24C C72U C85G C131G G133U as the variant, how does the “polymerase ribozyme fitness (log ratio)” value read?
Its value is at most -4.2.

For A24U C38U, which “polymerase ribozyme fitness (log ratio)” value is on record?
The value was 0.361.

Which “polymerase ribozyme fitness (log ratio)” value does the source give for A24C C72A C103A U109G G126U here?
The value was at most -4.2.

For A23U G88U C116U G140U G143U U146G, which “polymerase ribozyme fitness (log ratio)” value is on record?
The value was at most -4.2.

Which “polymerase ribozyme fitness (log ratio)” value does the source give for A24C A49C G84A A97C U130G A137U here?
The value was at most -4.2.

Which “polymerase ribozyme fitness (log ratio)” value does the source give for A24U C38A G50U U55A U61G G68C G84U G141A U151G here?
Its value is at most -4.2.

With A23U A40G U77A G84A U146G as the variant, how does the “polymerase ribozyme fitness (log ratio)” value read?
Its value is at most -4.2.

Which “polymerase ribozyme fitness (log ratio)” value does the source give for A24U G140A here?
Its value is -4.12.

For A24U G34U A47C C95G C108A A110G A138C A147C G152A, which “polymerase ribozyme fitness (log ratio)” value is on record?
The value was at most -4.2.

For A23U C93A, which “polymerase ribozyme fitness (log ratio)” value is on record?
Its value is at most -4.2.

With A24U A26U G48C G83A A115U C116U as the variant, how does the “polymerase ribozyme fitness (log ratio)” value read?
The value was at most -4.2.

With A23U A40G C87A G141U as the variant, how does the “polymerase ribozyme fitness (log ratio)” value read?
The value was at most -4.2.

For A23G G124C A147G A150G, which “polymerase ribozyme fitness (log ratio)” value is on record?
Its value is at most -4.2.

Which “polymerase ribozyme fitness (log ratio)” value does the source give for A24C G81U G83C A110U C114G here?
The value was at most -4.2.

Which “polymerase ribozyme fitness (log ratio)” value does the source give for A23U C85U A91G G126C G140U here?
The value was at most -4.2.

For A24U G58C G88A C93U A121G, which “polymerase ribozyme fitness (log ratio)” value is on record?
Its value is at most -4.2.

Which “polymerase ribozyme fitness (log ratio)” value does the source give for A23U C85U here?
Its value is -3.33.

For A24U A37U U82G, which “polymerase ribozyme fitness (log ratio)” value is on record?
Its value is -0.974.

Which “polymerase ribozyme fitness (log ratio)” value does the source give for A24C A49C A52C A64U C69A U82G C108U U130A U139G here?
Its value is at most -4.2.
